What all share (experiment): cell-based or functional assay
The target in assay [1] is sortase-ligated phosphopeptide β2AR reconstituted in HDL particles (HDL-β2ARpp) (human) (UniProt P07550).
Assay [2] addresses wild-type (WT) β2AR reconstituted in high-density lipoprotein particles (HDL-β2AR), non-phosphorylated (human) (UniProt P07550).
In assay [3] the target is phosphopeptide-ligated β2AR with a deletion of the third intracellular loop (β2ARppΔ238-267), in HDL particles (human) (UniProt P07550).
In assay [4] the target is β2AR ligated to a non-phosphorylated version of the V2R peptide, in HDL particles (β2ARnp) (human) (UniProt P07550).

As for “finger loop deletion mutant of β-arrestin1 (βarr1 Δ62-77) in βarr1-MC-393 (from UniProt P29066 1-61; P29066 78-393)”, the log IC50 of isoproterenol (ISO), competition radioligand binding, in the presence of βarr1 Δ62-77 (no transducer: -6.30+/-0.05) in assay [1] is -6.48 log.

Consider “heterotrimeric Gs protein (short Gαs splice variant, Gβ1-His6, Gγ2) (from UniProt P62873 2-340; P59768 2-68)”, for which, in assay [2], the fold increase of isoproterenol affinity by the transducer was determined as 1000 fold and the log IC50 of isoproterenol (ISO), [125I]-CYP competition binding, in the presence of Gs (no transducer: -6.82+/-0.03) is -8.88 log. In addition, in assay [1], the fold increase of isoproterenol affinity by the transducer is 800 fold and the log IC50 of isoproterenol (ISO), [125I]-CYP competition binding, in the presence of Gs (no transducer: -6.24+/-0.04) was -9.15 log. Moreover, the log IC50 of isoproterenol (ISO), competition radioligand binding, in the presence of Gs (no transducer: -6.91+/-0.04) in assay [3] was -8.85 log. Further, the log IC50 of isoproterenol (ISO), [125I]-CYP competition binding, in the presence of Gs (no transducer: -6.42+/-0.09) in assay [4] was -9.02 log.

Consider “β-arrestin1, minimal cysteine and truncated variant of rat βarr1 (βarr1-MC-393) (from UniProt P29066 1-393)”, for which, in assay [1], the fold increase of isoproterenol affinity by the transducer was found to be 9 fold; the log IC50 of isoproterenol (ISO), [125I]-CYP competition binding, in the presence of βarr1 (no transducer: -6.24+/-0.04) was -7.14 log; the log IC50 of isoproterenol (ISO), competition radioligand binding, in the presence of βarr1 (no transducer: -6.30+/-0.05) was -7.25 log.

These data come from patent US20240101642A1.
